B1: A-kinase anchor protein 17A (Homo sapiens), Q02040 (parent)
chain: MAAATIVHDTSEAVELCPAYGLYLKPITKMTISVALPQLKQPGKSISNWEVMERLKGMVQNHQFSTLRISKSTMDFIRFEGEVENKSLVKSFLACLDGKTIKLSGFSDILKVRAAEFKIDFPTRHDWDSFFRDAKDMNETLPGERPDTIHLEGLPCKWFALKESGSEKPSEDVLVKVFEKFGEIRNVDIPMLDPYREEMTGRNFHTFSFGGHLNFEAYVQYREYMGFIQAMSALRGMKLMYKGEDGKAVACNIKVSFDSTKHLSDASIKKRQLERQKLQELEQQREEQKRREKEAEERQRAEERKQKELEELERERKREEKLRKREQKQRDRELRRNQKKLEKLQAEEQKQLQEKIKLEERKLLLAQRNLQSIRLIAELLSRAKAVKLREQEQKEEKLRLQQQEERRRLQEAELRRVEEEKERALGLQRKERELRERLLSILLSKKPDDSHTHDELGVAHADLLQPVLDILQTVSSGCVSATTLHPLGGQPPAGAPKESPAHPEADGAPKSVNGSVAEEAPCKEVQSSCRVVPEDGSPEKRCPGGVLSCIPDNNQQPKGIPACEQNVSRKDTRSEQDKCNREPSKGRGRATGDGLADRHKRERSRARRASSREDGRPRKERRPHKKHAYKDDSPRRRSTSPDHTRSRRSHSKDRHRRERSRERRGSASRKHSRHRRRSERSRSRSPSRHRSTWNR
B2: Transcription initiation factor IIA subunit 1 (Homo sapiens), P52655 (parent)
chain: MANSANTNTVPKLYRSVIEDVINDVRDIFLDDGVDEQVLMELKTLWENKLMQSRAVDGFHSEEQQLLLQVQQQHQPQQQQHHHHHHHQQAQPQQTVPQQAQTQQVLIPASQQATAPQVIVPDSKLIQHMNASNMSAAATAATLALPAGVTPVQQILTNSGQLLQVVRAANGAQYIFQPQQSVVLQQQVIPQMQPGGVQAPVIQQVLAPLPGGISPQTGVIIQPQQILFTGNKTQVIPTTVAAPTPAQAQITATGQQQPQAQPAQTQAPLVLQVDGTGDTSSEEDEDEEEDYDDDEEEDKEKDGAEDGQVEEEPLNSEDDVSDEEGQELFDTENVVVCQYDKIHRSKNKWKFHLKDGIMNLNGRDYIFSKAIGDAEW
partner: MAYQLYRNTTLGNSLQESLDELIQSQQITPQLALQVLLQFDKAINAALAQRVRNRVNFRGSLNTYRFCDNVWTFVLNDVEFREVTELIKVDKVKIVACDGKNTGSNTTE
B3: Methylmalonyl-CoA epimerase, mitochondrial (Homo sapiens), Q96PE7 (parent)
chain: MARVLKAAAANAVGLFSRLQAPIPTVRASSTSQPLDQVTGSVWNLGRLNHVAIAVPDLEKAAAFYKNILGAQVSEAVPLPEHGVSVVFVNLGNTKMELLHPLGRDSPIAGFLQKNKAGGMHHICIEVDNINAAVMDLKKKKIRSLSEEVKIGAHGKPVIFLHPKDCGGVLVELEQA
partner: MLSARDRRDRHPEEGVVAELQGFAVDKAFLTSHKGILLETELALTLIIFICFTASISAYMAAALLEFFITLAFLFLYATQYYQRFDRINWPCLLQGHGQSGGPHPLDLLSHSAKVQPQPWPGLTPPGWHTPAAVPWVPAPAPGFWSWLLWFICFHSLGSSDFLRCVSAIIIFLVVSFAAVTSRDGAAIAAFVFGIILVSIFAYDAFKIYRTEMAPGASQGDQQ
B4: Methylthioribulose-1-phosphate dehydratase (Homo sapiens), Q96GX9 (parent)
chain: MSGCDAREGDCCSRRCGAQDKEHPRYLIPELCKQFYHLGWVTGTGGGISLKHGDEIYIAPSGVQKERIQPEDMFVCDINEKDISGPSPSKKLKKSQCTPLFMNAYTMRGAGAVIHTHSKAAVMATLLFPGREFKITHQEMIKGIKKCTSGGYYRYDDMLVVPIIENTPEEKDLKDRMAHAMNEYPDSCAVLVRRHGVYVWGETWEKAKTMCECYDYLFDIAVSMKKVGLDPSQLPVGENGIV
partner: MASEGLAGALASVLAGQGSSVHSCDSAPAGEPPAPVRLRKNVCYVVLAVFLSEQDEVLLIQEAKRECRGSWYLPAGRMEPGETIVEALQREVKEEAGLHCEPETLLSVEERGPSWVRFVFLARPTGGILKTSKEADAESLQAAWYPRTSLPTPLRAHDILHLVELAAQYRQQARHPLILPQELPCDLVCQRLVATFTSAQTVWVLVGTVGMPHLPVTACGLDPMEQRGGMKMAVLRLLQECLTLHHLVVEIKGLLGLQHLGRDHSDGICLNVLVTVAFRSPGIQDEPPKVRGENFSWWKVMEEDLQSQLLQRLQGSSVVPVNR
B5: Notch homolog 2 N-terminal-like protein A (Homo sapiens), Q7Z3S9 (parent)
chain: MCVTYHNGTGYCKCPEGFLGEYCQHRDPCEKNRCQNGGTCVAQAMLGKATCRCASGFTGEDCQYSTSHPCFVSRPCLNGGTCHMLSRDTYECTCQVGFTGKECQWTDACLSHPCANGSTCTTVANQFSCKCLTGFTGQKCETDVNECDIPGHCQHGGTCLNLPGSYQCQCLQGFTGQYCDSLYVPCAPSPCVNGGTCRQTGDFTFECNCLPETVRRGTELWERDREVWNGKEHDEN
partner: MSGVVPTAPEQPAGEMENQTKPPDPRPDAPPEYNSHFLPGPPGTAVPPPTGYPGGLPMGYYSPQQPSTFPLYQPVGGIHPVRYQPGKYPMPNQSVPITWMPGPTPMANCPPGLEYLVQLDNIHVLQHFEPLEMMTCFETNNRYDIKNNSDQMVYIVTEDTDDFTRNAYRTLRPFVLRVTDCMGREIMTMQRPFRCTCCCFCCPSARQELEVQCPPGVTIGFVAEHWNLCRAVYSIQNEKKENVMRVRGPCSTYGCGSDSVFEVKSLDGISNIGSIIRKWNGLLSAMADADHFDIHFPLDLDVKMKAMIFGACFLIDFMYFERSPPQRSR
B6: Protein FAM9B (Homo sapiens), Q8IZU0 (parent)
chain: MAAWGKKHAGKDPVRDECEERNRFTETREEDVTDEHGEREPFAETDEHTGANTKKPEDTAEDLTAKRKRMKMDKTCSKTKNKSKHALRKKQLKRQKRDYIHSLKLLNVLEEYITDEQKEEEEEEGEEEELIRIFQEQQKKWQQYRSVRRERLKEMKLLRDQFVKALEDFEDLCDRVFSDEDSELDN

The source of these data is IntAct's records for PubMed 31515488.

The first assay covers variants of B1. To be noted: with cep70_human CEP70, Q8NHQ1.
cep70_human CEP70, Q8NHQ1, sequence (Q8NHQ1 whole entry): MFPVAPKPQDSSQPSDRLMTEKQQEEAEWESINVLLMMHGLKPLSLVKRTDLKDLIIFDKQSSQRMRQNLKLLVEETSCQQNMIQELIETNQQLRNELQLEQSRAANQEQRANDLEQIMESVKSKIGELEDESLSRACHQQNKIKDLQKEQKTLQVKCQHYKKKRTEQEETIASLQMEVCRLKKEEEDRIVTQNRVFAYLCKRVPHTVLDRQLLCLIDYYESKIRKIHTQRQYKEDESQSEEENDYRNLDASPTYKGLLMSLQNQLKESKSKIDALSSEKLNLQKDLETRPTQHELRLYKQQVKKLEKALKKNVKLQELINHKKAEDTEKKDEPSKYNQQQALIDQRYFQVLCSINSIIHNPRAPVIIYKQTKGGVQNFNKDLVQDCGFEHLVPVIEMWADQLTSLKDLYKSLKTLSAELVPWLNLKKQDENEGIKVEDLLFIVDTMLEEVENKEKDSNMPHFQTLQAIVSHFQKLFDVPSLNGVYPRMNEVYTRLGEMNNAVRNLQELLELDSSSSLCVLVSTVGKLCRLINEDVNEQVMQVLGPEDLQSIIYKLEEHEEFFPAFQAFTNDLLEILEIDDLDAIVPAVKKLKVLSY
On to R298K, for which the “effect of a mutation on the interaction” value is on record as “with no effect”. The same measure, in the same setting: next, R675C: “with no effect”.

Variants of B2 are the subject of another assay. To be noted: with t2ag_human GTF2A2, P52657.
As for P208S, the “effect of a mutation on the interaction” value was “with no effect”.

Variants of B3 are the subject of a further assay. To be noted: with cklf5_human CMTM5, Q96DZ9.
Consider A76V, for which the “effect of a mutation on the interaction” value was “with no effect”. As for R143H, the “effect of a mutation on the interaction” value is reported as “with no effect”.

In another assay the parent is B4. To be noted: with nud18_human NUDT18, Q6ZVK8.
With M181V, the “effect of a mutation on the interaction” value is “with no effect”. On the same count and under the same terms, next, G111A: “with no effect”.

In the next assay the parent is B5. To be noted: with pls4_human PLSCR4, Q9NRQ2.
As for A115T, the “effect of a mutation on the interaction” value is recorded as “with no effect”. R74Q: the “effect of a mutation on the interaction” value is on record as “with no effect”.

Another assay covers variants of B6. To be noted: with dapk2_human DAPK2, Q9UIK4.
dapk2_human DAPK2, Q9UIK4, sequence (Q9UIK4 whole entry, looked up): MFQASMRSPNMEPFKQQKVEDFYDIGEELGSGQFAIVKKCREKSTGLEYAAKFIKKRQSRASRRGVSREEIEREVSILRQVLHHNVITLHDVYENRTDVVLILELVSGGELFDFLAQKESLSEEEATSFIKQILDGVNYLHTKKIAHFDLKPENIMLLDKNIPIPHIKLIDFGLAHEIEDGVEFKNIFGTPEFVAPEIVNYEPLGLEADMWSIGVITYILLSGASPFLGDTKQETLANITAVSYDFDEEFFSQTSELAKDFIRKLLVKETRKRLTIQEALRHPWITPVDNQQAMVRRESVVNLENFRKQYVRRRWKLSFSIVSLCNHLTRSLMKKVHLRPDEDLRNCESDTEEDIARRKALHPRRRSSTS
For R23H, the “effect of a mutation on the interaction” value is “with no effect”.

The next assay covers variants of B6. To be noted: with tr61b_human TRMT61B.
Take R23H: the “effect of a mutation on the interaction” value is on record as “with no effect”.

The variants in the next assay derive from B6. To be noted: with pin4_human PIN4, Q9Y237.
pin4_human PIN4, Q9Y237, sequence (Q9Y237 whole entry): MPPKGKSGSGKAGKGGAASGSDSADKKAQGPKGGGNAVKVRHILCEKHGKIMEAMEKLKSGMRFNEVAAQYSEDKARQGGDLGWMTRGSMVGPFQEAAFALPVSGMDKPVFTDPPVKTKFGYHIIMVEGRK
With R23H, the “effect of a mutation on the interaction” value is “with no effect”.

Variants of B6 are the subject of another assay. To be noted: with cc106_human CCDC106, Q9BWC9.
cc106_human CCDC106, Q9BWC9, sequence (Q9BWC9 whole entry): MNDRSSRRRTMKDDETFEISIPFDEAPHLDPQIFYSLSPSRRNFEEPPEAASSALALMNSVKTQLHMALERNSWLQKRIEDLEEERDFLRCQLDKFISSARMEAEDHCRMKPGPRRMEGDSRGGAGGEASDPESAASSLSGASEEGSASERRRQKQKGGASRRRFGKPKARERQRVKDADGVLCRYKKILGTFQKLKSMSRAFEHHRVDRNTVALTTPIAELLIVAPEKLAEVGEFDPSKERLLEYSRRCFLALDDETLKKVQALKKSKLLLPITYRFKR
In the case of R23H, the “effect of a mutation on the interaction” value is listed as “with no effect”.

Variants of B6 are the subject of another assay. To be noted: with eftu_human TUFM.
R23H: the “effect of a mutation on the interaction” value is recorded as “with no effect”.

Variants of B6 are the subject of a further assay. To be noted: with xrcc4_human XRCC4, Q13426.
xrcc4_human XRCC4, Q13426, sequence (Q13426 whole entry): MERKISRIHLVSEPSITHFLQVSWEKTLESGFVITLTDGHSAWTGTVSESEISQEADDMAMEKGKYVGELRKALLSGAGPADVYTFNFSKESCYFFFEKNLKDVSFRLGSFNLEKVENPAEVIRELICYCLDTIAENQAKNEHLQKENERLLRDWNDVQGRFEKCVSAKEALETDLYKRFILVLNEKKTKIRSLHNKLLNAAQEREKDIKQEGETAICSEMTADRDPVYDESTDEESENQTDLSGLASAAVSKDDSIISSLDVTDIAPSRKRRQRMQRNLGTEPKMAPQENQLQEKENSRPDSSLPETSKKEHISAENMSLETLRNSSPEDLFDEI
With R23H, the “effect of a mutation on the interaction” value is listed as “with no effect”.

The variants in a further assay derive from B6. To be noted: with daxx_human DAXX.
For the variant R23H, the “effect of a mutation on the interaction” value is “with no effect”.
